This data set is described as follows: self-splicing fitness, log relative to wild type (ln ratio); higher = more splicing; Tetrahymena group I intron in knt gene, E. coli kanamycin selection, DiMSum; sequences stand for … in CUCUCU…GGAGGGAAAAGUUAUCAGGCAUGCACCUGGUAGCUAGUCUUUAAACCAAUAGAUUGCAUCGGUUUAAAAGGCAAGACCGUCAAAUUGCGGGAAAGGGGUCAACAGCCGUUCAGUACCAAGUCUCAGGGGAAACUUUGAGAUGGCCUUGCAAAGGGUAUGGUAAUAAGCUGACGGACAUGGUCCUAACCACGCAGCCAAGUCCUAAGUCAACAGAUCUUCUGUUGAUAUGGAUGCAGUUCACAGACUAAAUGUCGGUCGGGGAAGAUGUAUUCUUCUCAUAAGAUAUAGUCGGACCUCUCCUUAAUGGGAGCUAGCGGAUGAAGUGAUGCAACACUGGAGCCGCUGGGAACUAAUUUGUAUGCGAAAGUAUAUUGAUUAGUUUUGGAGUACUCGUGGUCG
In a few lines:
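Library with all eight P1ex-region intron nucleotides randomised, intron inside the knt kanamycin-resistance gene on pET-22b(+), in E. coli BL21(DE3). Cells grew overnight at 37°C or 30°C on LB agar with or without 25 μg/mL kanamycin (plus 100 μg/mL carbenicillin, 50 μM IPTG, 0.2% rhamnose), in six replicate transformations. Pooled colonies were amplicon-sequenced on Illumina HiSeq 2500. DiMSum fitness is the error-weighted combination of wild-type-normalised replicate fold changes, kanamycin versus none.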

± gives the uncertainty stated by the source.

On to GGAUAGCAAUAUUACGGAGA, for which the “self-splicing fitness (ln)” value was -2.79 ± 0.26 (30 °C) and -2.33 ± 0.3 (37 °C). Regarding AGCAAGCAAUAUUACGAGUG, the “self-splicing fitness (ln)” value reads like this: (30 °C) -1.15 ± 0.051; (37 °C) -0.683 ± 0.06. For the sequence GCGAAGCAAUAUUACGGCAG, the “self-splicing fitness (ln)” value was -1.93 ± 0.21 (30 °C) and -2.92 ± 0.38 (37 °C). As for GAUAAGCAAUAUUACGGUGC, the “self-splicing fitness (ln)” value runs as follows: (30 °C) -2.8 ± 0.19; (37 °C) -2.17 ± 0.22. Regarding CAGGAGCAAUAUUACGUAGG, the “self-splicing fitness (ln)” value runs as follows: (30 °C) -0.929 ± 0.1; (37 °C) 0.172 ± 0.11. Turning to AAUGAGCAAUAUUACGUUCG, the “self-splicing fitness (ln)” value by setting is: (30 °C) -1.74 ± 0.11; (37 °C) -0.765 ± 0.12.

As to UUCGAGCAAUAUUACGUAAU, the “self-splicing fitness (ln)” value is, setting by setting: (30 °C) -2.06 ± 0.26; (37 °C) -1.9 ± 0.36. In the same order, the values of CUCAAGCAAUAUUACGGCAG are -2.26 ± 0.068 and -0.745 ± 0.092. Turning to CCUGAGCAAUAUUACGACCA, the “self-splicing fitness (ln)” value was -2.89 ± 0.44 (30 °C) and -2.06 ± 0.38 (37 °C).

For the sequence CGGUAGCAAUAUUACGCAAC, the “self-splicing fitness (ln)” value (37 °C) was -1.42 ± 0.35. CAAUAGCAAUAUUACGCAAU: the “self-splicing fitness (ln)” value (30 °C) is -3.23 ± 0.34 and the “self-splicing fitness (ln)” value (37 °C) was -2.09 ± 0.28.

For the sequence GACUAGCAAUAUUACGGGUC, the “self-splicing fitness (ln)” value (30 °C) is -3.22 ± 0.19 and the “self-splicing fitness (ln)” value (37 °C) is -2.71 ± 0.28. In the case of GACUAGCAAUAUUACGACUG, the “self-splicing fitness (ln)” value is -1.64 ± 0.1 (30 °C) and 0.0415 ± 0.13 (37 °C). For the sequence AUCGAGCAAUAUUACGCGGG, the “self-splicing fitness (ln)” value was -2.23 ± 0.24 (30 °C) and -1.21 ± 0.29 (37 °C). As to UCCUAGCAAUAUUACGCCUC, the “self-splicing fitness (ln)” value reads like this: (30 °C) -2.62 ± 0.27; (37 °C) -2.29 ± 0.39. Regarding UGUCAGCAAUAUUACGGCUC, the “self-splicing fitness (ln)” value was -2.5 ± 0.15 (30 °C) and -0.587 ± 0.16 (37 °C). Turning to CCAAAGCAAUAUUACGACCU, the “self-splicing fitness (ln)” value by setting is: (30 °C) -3.31 ± 0.21; (37 °C) -3.23 ± 0.38. With ACGGAGCAAUAUUACGCACG, the “self-splicing fitness (ln)” value (30 °C) was -3.77 ± 0.35 and the “self-splicing fitness (ln)” value (37 °C) was -2.71 ± 0.37. Consider CCGUAGCAAUAUUACGGUUA, for which the “self-splicing fitness (ln)” value (30 °C) was -3.29 ± 0.16 and the “self-splicing fitness (ln)” value (37 °C) was -1.57 ± 0.12. GCGUAGCAAUAUUACGGGUG: the “self-splicing fitness (ln)” value was -1.55 ± 0.08 (30 °C) and -1.46 ± 0.091 (37 °C). Consider ACACAGCAAUAUUACGUAGU, for which the “self-splicing fitness (ln)” value reads like this: (30 °C) -2.48 ± 0.077; (37 °C) -1.71 ± 0.088. In the same order, the values of AACUAGCAAUAUUACGGGUU are -3.03 ± 0.12 and -2.82 ± 0.17. On to GCGAAGCAAUAUUACGGCUG, for which the “self-splicing fitness (ln)” value by setting is: (30 °C) -1.55 ± 0.1; (37 °C) -0.574 ± 0.14. In the same order, the values of GAUAAGCAAUAUUACGCCUU are -0.931 ± 0.1 and -0.199 ± 0.14. With CCGUAGCAAUAUUACGGAUA, for the setting “37 °C”, the “self-splicing fitness (ln)” value was -2.16 ± 0.28. For the sequence GGCGAGCAAUAUUACGUGAC, the “self-splicing fitness (ln)” value by setting is: (30 °C) -1.24 ± 0.18; (37 °C) -1.65 ± 0.29. Take AAAGAGCAAUAUUACGGCGA: the “self-splicing fitness (ln)” value runs as follows: (30 °C) -1.65 ± 0.22; (37 °C) -1.26 ± 0.3. In the same order, the values of UCUCAGCAAUAUUACGCGGG are -1.7 ± 0.14 and -1.4 ± 0.15. As for UGUCAGCAAUAUUACGAUUG, the “self-splicing fitness (ln)” value reads like this: (30 °C) -0.341 ± 0.076; (37 °C) 0.249 ± 0.12. Consider UUCCAGCAAUAUUACGCGCU, for which the “self-splicing fitness (ln)” value (30 °C) is -3.9 ± 0.3. For the sequence UACAAGCAAUAUUACGCACA, the “self-splicing fitness (ln)” value (30 °C) is -1.23 ± 0.11 and the “self-splicing fitness (ln)” value (37 °C) was -0.242 ± 0.11. In the case of CAACAGCAAUAUUACGUUCC, the “self-splicing fitness (ln)” value runs as follows: (30 °C) -2.46 ± 0.096; (37 °C) -2.02 ± 0.12. As to AACAAGCAAUAUUACGUCAU, the “self-splicing fitness (ln)” value is -2.35 ± 0.075 (30 °C) and -1.59 ± 0.082 (37 °C). For UCCCAGCAAUAUUACGGCGA, the “self-splicing fitness (ln)” value is, setting by setting: (30 °C) -0.651 ± 0.063; (37 °C) -0.335 ± 0.078.

Consider ACAAAGCAAUAUUACGUGAA, for which the “self-splicing fitness (ln)” value is, setting by setting: (30 °C) -1.51 ± 0.074; (37 °C) -1.5 ± 0.083. Regarding AUUGAGCAAUAUUACGUUUG, the “self-splicing fitness (ln)” value (37 °C) is -1.91 ± 0.26. Take GUAGAGCAAUAUUACGGGUG: the “self-splicing fitness (ln)” value is, setting by setting: (30 °C) -2.72 ± 0.22; (37 °C) -2.93 ± 0.28. As to CCCAAGCAAUAUUACGGCCG, the “self-splicing fitness (ln)” value is -2.73 ± 0.19 (30 °C) and -2.43 ± 0.21 (37 °C).

Consider UGUCAGCAAUAUUACGCGAA, for which the “self-splicing fitness (ln)” value (30 °C) was -0.455 ± 0.069 and the “self-splicing fitness (ln)” value (37 °C) stood at 0.0551 ± 0.085. Regarding UCCAAGCAAUAUUACGGCCU, the “self-splicing fitness (ln)” value runs as follows: (30 °C) -2.33 ± 0.29; (37 °C) -2.6 ± 0.27. In the same order, the values of ACCCAGCAAUAUUACGCUUA are -0.429 ± 0.07 and -0.188 ± 0.078. Consider AAGUAGCAAUAUUACGGGCG, for which the “self-splicing fitness (ln)” value is -1.71 ± 0.11 (30 °C) and -1.53 ± 0.14 (37 °C).

On to CAAGAGCAAUAUUACGCGCA, for which the “self-splicing fitness (ln)” value is, setting by setting: (30 °C) -3.48 ± 0.37; (37 °C) -2.09 ± 0.25.

With GACCAGCAAUAUUACGACUG, the “self-splicing fitness (ln)” value is -2.86 ± 0.15 (30 °C) and -2.12 ± 0.17 (37 °C). In the same order, the values of AGAAAGCAAUAUUACGCUGC are -2.38 ± 0.2 and -1.52 ± 0.23. For UCCAAGCAAUAUUACGCGGG, the “self-splicing fitness (ln)” value is -3.94 ± 0.24 (30 °C) and -3.8 ± 0.36 (37 °C). In the same order, the values of ACGCAGCAAUAUUACGCAAC are -3.91 ± 0.32 and -1.83 ± 0.18. In the case of GAUCAGCAAUAUUACGUUAU, the “self-splicing fitness (ln)” value is -1.46 ± 0.07 (30 °C) and -0.207 ± 0.092 (37 °C). For the sequence AGAAAGCAAUAUUACGCGGU, the “self-splicing fitness (ln)” value (30 °C) was -3.13 ± 0.17 and the “self-splicing fitness (ln)” value (37 °C) is -1.92 ± 0.21. For AACCAGCAAUAUUACGACUG, the “self-splicing fitness (ln)” value is, setting by setting: (30 °C) -3.11 ± 0.15; (37 °C) -1.83 ± 0.12. As to AUUAAGCAAUAUUACGGAAG, the “self-splicing fitness (ln)” value is, setting by setting: (30 °C) -3.07 ± 0.17; (37 °C) -1.29 ± 0.2. For AUAUAGCAAUAUUACGCUCC, the “self-splicing fitness (ln)” value reads like this: (30 °C) -0.958 ± 0.25; (37 °C) -0.476 ± 0.32. Consider ACCGAGCAAUAUUACGAGCU, for which the “self-splicing fitness (ln)” value (30 °C) was -2.94 ± 0.23 and the “self-splicing fitness (ln)” value (37 °C) was -2.54 ± 0.28. In the case of UGGGAGCAAUAUUACGACUA, the “self-splicing fitness (ln)” value by setting is: (30 °C) -1.68 ± 0.35; (37 °C) 0.369 ± 0.3. In the same order, the values of GCCGAGCAAUAUUACGCAUG are -3.99 ± 0.3 and -2.4 ± 0.22. In the same order, the values of UUCAAGCAAUAUUACGUGUG are -1.25 ± 0.056 and -0.551 ± 0.07.

CCGAAGCAAUAUUACGCCCC: the “self-splicing fitness (ln)” value by setting is: (30 °C) -1.26 ± 0.24; (37 °C) -2.89 ± 0.47. On to CAGAAGCAAUAUUACGAAUU, for which the “self-splicing fitness (ln)” value reads like this: (30 °C) -3.5 ± 0.2; (37 °C) -2.05 ± 0.27. With UCGUAGCAAUAUUACGUCUC, the “self-splicing fitness (ln)” value is, setting by setting: (30 °C) -2.93 ± 0.19; (37 °C) -2.29 ± 0.22. As to GAAGAGCAAUAUUACGAAGG, the “self-splicing fitness (ln)” value is, setting by setting: (30 °C) -2.75 ± 0.17; (37 °C) -3.62 ± 0.46. For the sequence CCCGAGCAAUAUUACGGAGG, the “self-splicing fitness (ln)” value was -3.84 ± 0.21 (30 °C) and -2.57 ± 0.19 (37 °C).

The record behind these values is the supplement of paper PMC7877785.
